Residue numbers refer to the chain shown, from its start. Each block holds one binder with its values, some of them ahead of it.
What was measured:
[1] = molecular target: T1, Aβ oligomers prepared from Amyloid β-protein, Human 1-42 peptide (human, UniProt P05067 672-713); experiment: SPR (Biacore T100), Aβ oligomers amine-coupled on CM5 chip, antibody injected, Bivalent Analyte model (ka1)
T1 construct: domain: Amyloid β-protein, Human 1-42 peptide; Non-covalent oligomer of synthetic Aβ1-42; Immobilized on a CM5 chip by amine coupling; also called amyloid β protein oligomer
Experimental: (§1) All the following operations were performed using Biocore T100 (manufactured by GE Healthcare Bio-sciences). The Aβ oligomers obtained in (1) of Example 2 were immobilized to the CM5 sensor chip (GE Healthcare Bio-sciences) using the amine coupling method.
(§2) Onto the chip to which the Aβ oligomers were immobilized for measurement samples prepared to have 8 levels of density by diluting from 30 μg/mL by doubling dilution in a stepwise manner (HV0LV0, HV0LV2a, HV0LV4 and HV12LV4) was sequentially injected and measured in the order from the lower density based on the automatic program of the multi-kinetics.
(§3) Using the analysis software attached to the device, Biacore T100 Evaluation software (manufactured by Biacore Life Science), analysis was carried out with the Bivalent Analyte model to calculate the binding rate constant ka and the dissociation rate constant kd of each of the antibody against Aβ oligomers.

[2] = molecular target: T1, Aβ oligomers prepared from Amyloid …; experiment: SPR (Biacore T100), Aβ oligomers amine-coupled on CM5 chip, antibody injected, Bivalent Analyte model (kd1/ka1)
Experimental: as §1, §2, §3

[3] = molecular target: T2, Aβ monomers prepared from Biotin-beta-Amyloid, Human 1-40 (human, UniProt P05067 672-711, Biotin (position not stated; printed as "Biotin-beta-Amyloid, Human 1-40")); experiment: SPR (Biacore T100), biotin-Aβ1-40 monomers captured on SA chip, antibody injected
T2 construct: domain: beta-Amyloid, Human 1-40; Captured on an SA sensor chip through biotin; also called amyloid β protein monomer
Experimental: In order to analyze the binding activity of the respective anti-Aβ oligomer humanized antibodies (HV0LV0, HV0LV2a, HV0LV4 and HV12LV4) against Aβ monomers, the binding activity was measured in the same manner as in (1) of this Example. In addition, the binding activity of anti-Aβ antibody 6E10 (manufactured by CONVANCE) was measured as a control antibody.
The Aβ monomers obtained in (2) of Example (2) were immobilized to the SA sensor chip (manufactured by GE Healthcare Bio-sciences) by the biotin capturing method. Onto the chip to which the Aβ monomers were immobilized, samples for measurement, which were prepared to have 5 levels of density by diluting from 30 μg/mL by doubling dilution in a stepwise manner (6E10, HV0LV0, HV0LV2a, HV0LV4 and HV12LV4), were sequentially injected and measured in the order from the lower density based on the automatic program of the multi-kinetics mode.

[4] = molecular target: T1, Aβ oligomers prepared from Amyloid …; experiment: SPR (Biacore T100), Aβ oligomers amine-coupled on CM5 chip, antibody injected, Bivalent Analyte model (kd1)
Experimental: as §1, §2, §3

T1 sequence (P05067 672-713 limits assumed): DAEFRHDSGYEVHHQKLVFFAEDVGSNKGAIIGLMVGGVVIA
T2 sequence (P05067 672-711 limits assumed): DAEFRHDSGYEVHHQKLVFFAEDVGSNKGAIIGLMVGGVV

B1: anti-Aβ oligomer humanized antibody HV0LV2a (antibody, V domains shown)
VH: QVQLVQSGAEVKKPGASVKVSCKASGYTFTSYWMHWVRQAPGQGLEWMGEINPRNGGTNNNENFKRRVTITADTSTSTAYMELSSLRSEDTAVYYCARDGNYDPFAYWGQGTLVTVSS
VL: DIVMTQSPLSLPVTPGEPASISCRSSQSLVHSNGNTYLHWYLQKPGQSPKLLIYKVSNRFSGVPDRFSGSGSGTDFTLKISRVEAEDVGVYFCSQSTHVPPYTFGQGTKLEIK
notes: also called 6E4HV0 + LV2a
kon [1]: 6400 M⁻¹ s⁻¹
Kd [2]: 61 nM
binding result [3]: no binding (tested: 30 µg/mL highest of 5 two-fold dilutions)
koff [4]: 0.00039 s⁻¹

B3: anti-Aβ oligomer humanized antibody HV0LV0 (antibody, V domains shown)
VH: B1 VH
VL: B1 VL with K50Q, F92Y
notes: Whole humanized antibody expressed from vector pKANTEX93 (WO 97/10354) with human constant regions; Produced in FUT8 knockout CHO/DG44 cells (no core fucose); also called 6E4HV0 + 6E4LV0
kon [1]: 17000 M⁻¹ s⁻¹
Kd [2]: 40 nM
binding result [3]: no binding (tested: 30 µg/mL highest of 5 two-fold dilutions)
koff [4]: 0.00069 s⁻¹

Continued, in another order:

kon [1]: 2700 M⁻¹ s⁻¹
Kd [2]: 300 nM
koff [4]: 0.00081 s⁻¹
B2: anti-Aβ oligomer humanized antibody HV12LV4 (antibody, V domains shown)
VH: QVQLVQSGAEVVKPGASVKLSCKASGYTFTSYWMHWVKLAPGQGFEWIGEINPRNGGTNNNENFKRKATLTVDKSTSTAYMELSSLRSEDTAVYYCTRDGNYDPFAYWGQGTLVTVSS
VL: B1 VL with I2V, P15L
binding result [3]: no binding (tested: 30 µg/mL highest of 5 two-fold dilutions)

kon [1]: 7000 M⁻¹ s⁻¹
Kd [2]: 71 nM
koff [4]: 0.0005 s⁻¹
B4: anti-Aβ oligomer humanized antibody HV0LV4 (antibody, V domains shown)
VH: B1 VH
VL: B1 VL with I2V, P15L
notes: also called 6E4HV0 + LV4
binding result [3]: no binding (tested: 30 µg/mL highest of 5 two-fold dilutions)

From patent US20120009179A1 (Kyowa Kirin, published 2012)
